The values below come from the supplement of paper PMC10567573.

Sequences and labels used below:
B1: SLC35F2 (parent)
chain: SFMPLVIKVTSATSVNLGILTADL
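Further: lentivirally expressed fusions sorted by FACS into six bins by GFP to DsRed ratio, PSI derived from sequencing read proportions per bin multiplied by bin number.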

In the series the parent is B1. The series is described as follows: protein stability index of a GFP-peptide fusion (GPS, HEK-293T) (PSI 1-6); higher = more stable. The settings on record: c terminus: a fixed tail appended.
With SFMPLVIKVTSATSVCLGILTADL, the protein stability index is 3.4.
In the case of SFMPLVIKVTSATSVGLGILTADL it was 2.93.
In the case of SFMPLVIKVTSATSVMLGILTADL it was 3.88; in that of SFMPLVIKVTSATSVLLGILTADL, 3.94; in that of SFMPLVIKVTSATSVDLGILTADL, 2.94.
In the case of SFMPLVIKVTSATSVYLGILTADL it was 3.46; in that of SFMPLVIKVTSATSVWLGILTADL, 2.82; in that of SFMPLVIKVTSATSVRLGILTADL, 3.2.
Take SFMPLVIKVTSATSVVLGILTADL: the protein stability index was 4.07.
With SFMPLVIKVTSATSVELGILTADL the figure was 2.55; with SFMPLVIKVTSATSVKLGILTADL, 3.43.
Regarding SFMPLVIKVTSATSVFLGILTADL, the protein stability index is 3.69.
Regarding SFMPLVIKVTSATSVTLGILTADL, the protein stability index was determined as 3.43.
In the case of SFMPLVIKVTSATSVQLGILTADL it was 3.34; in that of SFMPLVIKVTSATSVALGILTADL, 2.18.
With SFMPLVIKVTSATSVHLGILTADL the figure was 2.74; with SFMPLVIKVTSATSVILGILTADL, 4.17.
For the variant SFMPLVIKVTSATSVNNGILTADL, the protein stability index was found to be 2.99.
In the case of SFMPLVIKVTSATSVNHGILTADL it was 2.92; in that of SFMPLVIKVTSATSVNIGILTADL, 2.77; in that of SFMPLVIKVTSATSVNKGILTADL, 3.17.
With SFMPLVIKVTSATSVNVGILTADL the figure was 2.44; with SFMPLVIKVTSATSVNYGILTADL, 2.6; with SFMPLVIKVTSATSVNWGILTADL, 3.32.
With SFMPLVIKVTSATSVNAGILTADL the figure was 2.48; with SFMPLVIKVTSATSVNTGILTADL, 2.56; with SFMPLVIKVTSATSVNSGILTADL, 2.85.
For SFMPLVIKVTSATSVNPGILTADL, the protein stability index is 2.74.
On to SFMPLVIKVTSATSVNCGILTADL, for which the protein stability index was 3.14.
In the case of SFMPLVIKVTSATSVNMGILTADL it was 3.87; in that of SFMPLVIKVTSATSVNDGILTADL, 2.04.
With SFMPLVIKVTSATSVNRGILTADL the figure was 2.5; with SFMPLVIKVTSATSVNEGILTADL, 2.24; with SFMPLVIKVTSATSVNGGILTADL, 2.9.
With SFMPLVIKVTSATSVNFGILTADL the figure was 2.72; with SFMPLVIKVTSATSVNQGILTADL, 3.52; with SFMPLVIKVTSATSVNLGIQTADL, 3.08.
As to SFMPLVIKVTSATSVNLGICTADL, the protein stability index was determined as 2.67.
Regarding SFMPLVIKVTSATSVNLGIFTADL, the protein stability index worked out at 3.49.
In the case of SFMPLVIKVTSATSVNLGIYTADL it was 3.69.
In the case of SFMPLVIKVTSATSVNLGIHTADL it was 3.07; in that of SFMPLVIKVTSATSVNLGISTADL, 2.8.
Consider SFMPLVIKVTSATSVNLGIETADL, for which the protein stability index came to 2.87.
For the variant SFMPLVIKVTSATSVNLGIKTADL, the protein stability index worked out at 1.93.
In the case of SFMPLVIKVTSATSVNLGIWTADL it was 3.1.
In the case of SFMPLVIKVTSATSVNLGINTADL it was 1.97; in that of SFMPLVIKVTSATSVNLGIVTADL, 3.65; in that of SFMPLVIKVTSATSVNLGIDTADL, 1.59.
With SFMPLVIKVTSATSVNLGIPTADL the figure was 2.38; with SFMPLVIKVTSATSVNLGIGTADL, 2.2; with SFMPLVIKVTSATSVNLGITTADL, 2.55.
Turning to SFMPLVIKVTSATSVNLGIITADL, the protein stability index amounted to 3.65.
In the case of SFMPLVIKVTSATSVNLGIMTADL it was 2.92; in that of SFMPLVIKVTSATSVNLGIATADL, 3.33.
In the case of SFMPLVIKVTSATSVNLGILAADL it was 2.49.
With SFMPLVIKVTSATSVNLGELTADL the figure was 2.08.
Turning to SFMPLVIKVTSATSVNLGFLTADL, the protein stability index turned out to be 3.09.
With SFMPLVIKVTSATSVNLGNLTADL the figure was 2.86.
As for SFMPLVIKVTSATSVNLGDLTADL, the protein stability index came to 1.97.
With SFMPLVIKVTSATSVNLGSLTADL the figure was 2.69.
As for SFMPLVIKVTSATSVNLGGLTADL, the protein stability index turned out to be 3.15.
For SFMPLVIKVTSATSVNLGPLTADL, the protein stability index was 2.37.
With SFMPLVIKVTSATSVNLGKLTADL the figure was 2.68; with SFMPLVIKVTSATSVNLGTLTADL, 2.
With SFMPLVIKVTSATSVNLGCLTADL the figure was 2.99.
In the case of SFMPLVIKVTSATSVNLGALTADL it was 3; in that of SFMPLVIKVTSATSVNLGHLTADL, 2.39; in that of SFMPLVIKVTSATSVNLGYLTADL, 2.38.
As for SFMPLVIKVTSATSVNLGLLTADL, the protein stability index worked out at 2.54.
With SFMPLVIKVTSATSVNLGQLTADL the figure was 2.64; with SFMPLVIKVTSATSVNLGVLTADL, 2.77.
With SFMPLVIKVTSATSVNLGRLTADL the figure was 2.08; with SFMPLVIKVTSATSVNLGMLTADL, 3.44; with SFMPLVIKVTSATSYNLGILTADL, 2.21.
With SFMPLVIKVTSATSWNLGILTADL, the protein stability index was 4.14.
With SFMPLVIKVTSATSVNLVILTADL the figure was 2.17; with SFMPLVIKVTSATSVNLHILTADL, 3.1.
Consider SFMPLVIKVTSATSVNLNILTADL, for which the protein stability index worked out at 3.27.
With SFMPLVIKVTSATSVNLPILTADL the figure was 2.47; with SFMPLVIKVTSATSVNLRILTADL, 3.18; with SFMPLVIKVTSATSVNLDILTADL, 3.2.
In the case of SFMPLVIKVTSATSVNLCILTADL it was 3.82; in that of SFMPLVIKVTSATSVNLFILTADL, 3.03; in that of SFMPLVIKVTSATSVNLWILTADL, 3.32.
With SFMPLVIKVTSATSVNLMILTADL the figure was 2.55; with SFMPLVIKVTSATSVNLEILTADL, 2.91; with SFMPLVIKVTSATSVNLIILTADL, 3.72.
On to SFMPLVIKVTSATSVNLLILTADL, for which the protein stability index was 3.54.
In the case of SFMPLVIKVTSATSVNLKILTADL it was 2.9.
In the case of SFMPLVIKVTSATSVNLSILTADL it was 3.19; in that of SFMPLVIKVTSATSVNLYILTADL, 3.08.
In the case of SFMPLVIKVTSATSVNLTILTADL it was 3.29.
Turning to SFMPLVIKVTSATSVNLQILTADL, the protein stability index stood at 4.06.
With SFMPLVIKVTSATSVNLAILTADL the figure was 2.54.
